For 17 molecules, EC50 (RC50), arrestin, agonist mode, EC80, arrestin, agonist mode and % Activity, arrestin, antagonist mode, 2.5 uM results are on record in patent US20260184748A1, “COMPOSITIONS COMPRISING OCTADECANEUROPEPTIDES (ODN) AND SYNTHETIC DERIVATIVES THEREOF AND METHODS OF USE FOR MODULATION OF FOOD INTAKE, OBESITY, BODY WEIGHT, NAUSEA, AND EMESIS” (The Trustees of the University of Pennsylvania, priority 2022, published 2026).

Experiment in all cases: cell-based or functional assay
Assay [1] addresses T1, CCR10 (UniProt P46092).
T1 sequence (looked up): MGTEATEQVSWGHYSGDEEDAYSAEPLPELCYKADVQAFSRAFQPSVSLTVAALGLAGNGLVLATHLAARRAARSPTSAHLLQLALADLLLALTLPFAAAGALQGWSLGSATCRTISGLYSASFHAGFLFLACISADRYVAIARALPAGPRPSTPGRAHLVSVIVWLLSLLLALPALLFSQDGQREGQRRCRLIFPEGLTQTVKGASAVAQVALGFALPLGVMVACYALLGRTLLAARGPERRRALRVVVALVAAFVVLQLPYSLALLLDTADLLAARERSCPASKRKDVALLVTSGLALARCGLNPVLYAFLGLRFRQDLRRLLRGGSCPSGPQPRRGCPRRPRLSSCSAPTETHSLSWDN

For assay [2], the target named is PROKR2 (UniProt Q8NFJ6).
Chain of PROKR2 (Q8NFJ6 whole entry): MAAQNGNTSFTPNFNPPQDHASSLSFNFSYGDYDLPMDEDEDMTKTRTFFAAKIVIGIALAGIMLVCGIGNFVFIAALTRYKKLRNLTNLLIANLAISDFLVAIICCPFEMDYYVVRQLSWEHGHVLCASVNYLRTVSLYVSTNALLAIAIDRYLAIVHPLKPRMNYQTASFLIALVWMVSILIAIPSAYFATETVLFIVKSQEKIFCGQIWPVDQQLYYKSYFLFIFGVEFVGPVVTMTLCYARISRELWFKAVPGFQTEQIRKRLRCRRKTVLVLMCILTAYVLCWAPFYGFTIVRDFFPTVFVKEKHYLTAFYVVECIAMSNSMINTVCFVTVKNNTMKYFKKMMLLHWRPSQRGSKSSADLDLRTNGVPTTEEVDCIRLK
Assay [3] has as its target PROKR1 (UniProt Q8TCW9).
In assay [4] the target is CXCR5 (UniProt P32302).
Chain of CXCR5 (P32302 whole entry): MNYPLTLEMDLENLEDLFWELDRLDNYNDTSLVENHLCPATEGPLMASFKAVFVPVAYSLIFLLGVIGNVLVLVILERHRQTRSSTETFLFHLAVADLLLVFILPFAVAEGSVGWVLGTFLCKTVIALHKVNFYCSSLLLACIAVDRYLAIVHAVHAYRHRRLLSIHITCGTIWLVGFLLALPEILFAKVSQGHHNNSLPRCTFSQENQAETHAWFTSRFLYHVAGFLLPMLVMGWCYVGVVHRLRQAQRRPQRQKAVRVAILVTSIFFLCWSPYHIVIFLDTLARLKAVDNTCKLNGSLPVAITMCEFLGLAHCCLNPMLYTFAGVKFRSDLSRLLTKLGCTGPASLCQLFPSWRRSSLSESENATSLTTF
The target in assay [5] is CXCR3 (UniProt P49682).
Chain of CXCR3 (P49682 whole entry): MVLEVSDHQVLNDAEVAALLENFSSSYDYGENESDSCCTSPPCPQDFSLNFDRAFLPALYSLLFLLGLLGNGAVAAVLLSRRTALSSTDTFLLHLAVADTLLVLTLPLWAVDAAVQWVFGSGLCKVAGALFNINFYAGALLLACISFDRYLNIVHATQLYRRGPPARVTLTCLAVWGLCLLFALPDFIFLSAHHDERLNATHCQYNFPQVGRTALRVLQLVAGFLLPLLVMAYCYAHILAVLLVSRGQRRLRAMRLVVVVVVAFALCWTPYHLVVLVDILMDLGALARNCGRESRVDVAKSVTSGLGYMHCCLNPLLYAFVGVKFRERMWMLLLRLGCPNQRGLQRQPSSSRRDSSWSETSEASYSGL
For assay [6], the target named is PPYR1 (UniProt P50391).
Chain of PPYR1 (P50391 whole entry): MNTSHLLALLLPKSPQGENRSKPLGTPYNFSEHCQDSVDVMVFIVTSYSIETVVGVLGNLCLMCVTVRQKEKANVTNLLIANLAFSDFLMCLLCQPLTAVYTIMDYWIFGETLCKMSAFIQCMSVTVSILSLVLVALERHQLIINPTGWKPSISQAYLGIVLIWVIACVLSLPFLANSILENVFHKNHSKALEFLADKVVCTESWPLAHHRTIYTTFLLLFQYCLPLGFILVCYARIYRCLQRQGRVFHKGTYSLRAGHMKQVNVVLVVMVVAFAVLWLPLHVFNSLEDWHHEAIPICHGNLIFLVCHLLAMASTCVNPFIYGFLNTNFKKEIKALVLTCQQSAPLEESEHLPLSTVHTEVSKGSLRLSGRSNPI
For assay [7], the target named is NMU1R (UniProt Q9HB89).
Chain of NMU1R (Q9HB89 whole entry): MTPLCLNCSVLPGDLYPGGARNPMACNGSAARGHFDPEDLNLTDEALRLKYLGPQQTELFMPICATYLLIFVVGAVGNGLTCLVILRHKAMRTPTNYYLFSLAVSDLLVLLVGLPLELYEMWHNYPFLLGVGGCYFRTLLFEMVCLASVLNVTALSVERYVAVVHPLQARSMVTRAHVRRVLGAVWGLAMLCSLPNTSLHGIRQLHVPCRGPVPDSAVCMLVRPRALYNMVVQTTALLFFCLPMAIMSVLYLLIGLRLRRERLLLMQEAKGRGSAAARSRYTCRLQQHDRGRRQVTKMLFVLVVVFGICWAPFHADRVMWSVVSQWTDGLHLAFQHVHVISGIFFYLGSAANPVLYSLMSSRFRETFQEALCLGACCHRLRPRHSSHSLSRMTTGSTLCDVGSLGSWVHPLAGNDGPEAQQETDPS
Assay [8] deals with CXCR6 (UniProt O00574).
Chain of CXCR6 (O00574 whole entry): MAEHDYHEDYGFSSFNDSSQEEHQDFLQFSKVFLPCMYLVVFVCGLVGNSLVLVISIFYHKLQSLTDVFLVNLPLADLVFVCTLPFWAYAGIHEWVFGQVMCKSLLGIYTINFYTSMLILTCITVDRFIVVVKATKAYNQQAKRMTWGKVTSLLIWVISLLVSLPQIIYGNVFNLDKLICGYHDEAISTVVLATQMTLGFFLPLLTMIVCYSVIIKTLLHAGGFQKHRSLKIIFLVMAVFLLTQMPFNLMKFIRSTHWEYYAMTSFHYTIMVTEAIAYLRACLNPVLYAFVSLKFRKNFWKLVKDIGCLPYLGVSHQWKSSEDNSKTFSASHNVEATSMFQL
Assay [9] has as its target NPBWR2 (UniProt P48146).
Assay [10] addresses T2, NPBWR1 (UniProt P48145).
T2 sequence (looked up): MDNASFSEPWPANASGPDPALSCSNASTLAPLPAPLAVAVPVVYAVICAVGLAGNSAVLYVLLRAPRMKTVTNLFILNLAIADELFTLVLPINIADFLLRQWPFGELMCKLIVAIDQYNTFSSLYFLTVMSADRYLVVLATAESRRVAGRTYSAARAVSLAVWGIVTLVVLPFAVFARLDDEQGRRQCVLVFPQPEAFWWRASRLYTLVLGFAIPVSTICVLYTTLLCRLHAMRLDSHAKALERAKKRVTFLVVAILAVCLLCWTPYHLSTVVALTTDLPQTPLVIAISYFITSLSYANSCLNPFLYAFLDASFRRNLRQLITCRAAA

Assay [11] has as its target MCHR2 (UniProt Q969V1).
Assay [12] deals with MCHR1 (UniProt Q99705).
Chain of MCHR1 (Q99705 whole entry): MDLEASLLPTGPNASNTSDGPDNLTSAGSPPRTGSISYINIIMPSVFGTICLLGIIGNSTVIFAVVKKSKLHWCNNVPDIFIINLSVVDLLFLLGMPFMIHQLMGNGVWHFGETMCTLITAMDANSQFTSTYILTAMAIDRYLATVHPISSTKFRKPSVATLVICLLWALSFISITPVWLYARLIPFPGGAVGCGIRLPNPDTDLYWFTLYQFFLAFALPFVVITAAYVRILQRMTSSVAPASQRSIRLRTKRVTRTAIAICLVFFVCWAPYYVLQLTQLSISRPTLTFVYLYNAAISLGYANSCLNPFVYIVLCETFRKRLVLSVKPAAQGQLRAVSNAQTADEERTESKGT
Assay [13] deals with T3, NPSR1B (UniProt Q6W5P4).
T3 sequence (looked up): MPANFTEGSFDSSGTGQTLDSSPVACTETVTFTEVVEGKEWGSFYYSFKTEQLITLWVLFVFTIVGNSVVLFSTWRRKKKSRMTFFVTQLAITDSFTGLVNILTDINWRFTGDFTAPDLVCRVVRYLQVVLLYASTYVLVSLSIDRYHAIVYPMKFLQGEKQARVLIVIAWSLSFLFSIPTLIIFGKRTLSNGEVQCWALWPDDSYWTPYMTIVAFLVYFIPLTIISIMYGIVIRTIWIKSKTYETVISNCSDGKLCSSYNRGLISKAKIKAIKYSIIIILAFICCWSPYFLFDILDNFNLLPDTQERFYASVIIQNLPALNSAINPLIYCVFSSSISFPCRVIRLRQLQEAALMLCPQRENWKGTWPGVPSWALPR

For assay [14], the target named is T4, CCR4 (UniProt P51679).
T4 sequence (looked up): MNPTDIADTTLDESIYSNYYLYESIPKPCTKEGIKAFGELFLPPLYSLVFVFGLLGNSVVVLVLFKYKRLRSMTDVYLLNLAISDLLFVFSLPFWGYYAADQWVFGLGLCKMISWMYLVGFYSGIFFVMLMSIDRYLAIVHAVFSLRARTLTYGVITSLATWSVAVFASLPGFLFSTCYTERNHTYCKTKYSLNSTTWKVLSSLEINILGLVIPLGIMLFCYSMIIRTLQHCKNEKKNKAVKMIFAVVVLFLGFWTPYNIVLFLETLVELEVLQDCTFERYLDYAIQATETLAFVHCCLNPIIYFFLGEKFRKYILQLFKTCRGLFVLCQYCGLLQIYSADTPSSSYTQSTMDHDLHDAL

The target in assay [15] is DRD2L, P14416.
Assay [16] has as its target F2R, P25116.
Assay [17] has as its target T5, CRHR2 (UniProt Q13324).
T5 sequence (looked up): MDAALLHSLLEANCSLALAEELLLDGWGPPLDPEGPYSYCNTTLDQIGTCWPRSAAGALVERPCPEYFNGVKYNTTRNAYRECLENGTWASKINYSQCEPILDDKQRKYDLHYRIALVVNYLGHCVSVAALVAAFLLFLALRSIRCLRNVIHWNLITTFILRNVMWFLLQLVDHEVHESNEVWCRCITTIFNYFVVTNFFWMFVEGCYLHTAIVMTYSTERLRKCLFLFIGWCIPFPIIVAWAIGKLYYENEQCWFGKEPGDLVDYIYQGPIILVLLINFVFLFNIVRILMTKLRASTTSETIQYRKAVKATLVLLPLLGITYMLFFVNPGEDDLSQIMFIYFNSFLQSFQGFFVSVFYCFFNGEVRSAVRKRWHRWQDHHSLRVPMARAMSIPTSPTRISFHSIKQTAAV

Assay [18] deals with CRHR1 (UniProt P34998).
Chain of CRHR1 (P34998 24-415 limits assumed): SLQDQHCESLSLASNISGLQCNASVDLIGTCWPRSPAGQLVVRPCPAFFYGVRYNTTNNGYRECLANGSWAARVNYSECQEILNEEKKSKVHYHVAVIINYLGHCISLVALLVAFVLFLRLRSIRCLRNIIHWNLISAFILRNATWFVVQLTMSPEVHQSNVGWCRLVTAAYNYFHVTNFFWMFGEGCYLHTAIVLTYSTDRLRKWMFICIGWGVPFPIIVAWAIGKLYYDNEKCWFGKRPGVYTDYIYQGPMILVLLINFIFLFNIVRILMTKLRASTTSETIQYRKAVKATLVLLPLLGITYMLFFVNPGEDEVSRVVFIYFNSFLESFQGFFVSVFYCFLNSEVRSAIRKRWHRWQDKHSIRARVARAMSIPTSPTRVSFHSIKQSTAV
Assay [19] addresses GPR103 (UniProt Q96P65).
The target in assay [20] is T6, UTR2 (UniProt Q9UKP6).
T6 sequence (looked up): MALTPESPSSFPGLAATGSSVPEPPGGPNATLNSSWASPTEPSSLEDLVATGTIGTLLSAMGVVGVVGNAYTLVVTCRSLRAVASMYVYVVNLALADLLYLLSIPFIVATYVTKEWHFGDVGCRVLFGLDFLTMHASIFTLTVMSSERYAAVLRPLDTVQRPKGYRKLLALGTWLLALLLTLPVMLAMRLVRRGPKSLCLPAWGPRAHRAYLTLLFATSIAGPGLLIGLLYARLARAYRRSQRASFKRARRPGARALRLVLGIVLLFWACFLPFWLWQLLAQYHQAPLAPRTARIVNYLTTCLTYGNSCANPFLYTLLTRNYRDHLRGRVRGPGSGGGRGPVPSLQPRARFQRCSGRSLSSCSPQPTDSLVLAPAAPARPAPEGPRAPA

The target in assay [21] is CCR8 (UniProt P51685).

Where no end group is shown, it is not given here.

Chain of F2R, P25116 (P25116 22-425): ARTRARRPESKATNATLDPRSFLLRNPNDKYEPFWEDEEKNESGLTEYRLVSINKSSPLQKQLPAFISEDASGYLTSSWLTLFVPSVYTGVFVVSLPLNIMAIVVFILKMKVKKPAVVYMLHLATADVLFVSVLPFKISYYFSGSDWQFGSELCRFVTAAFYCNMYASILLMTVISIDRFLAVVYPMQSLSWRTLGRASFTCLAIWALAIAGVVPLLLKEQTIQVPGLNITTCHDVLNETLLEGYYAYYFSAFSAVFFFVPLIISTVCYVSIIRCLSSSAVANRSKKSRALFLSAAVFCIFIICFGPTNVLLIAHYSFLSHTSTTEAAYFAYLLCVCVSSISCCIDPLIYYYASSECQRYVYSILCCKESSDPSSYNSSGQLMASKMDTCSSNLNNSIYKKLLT
Chain of PROKR1 (Q8TCW9 whole entry): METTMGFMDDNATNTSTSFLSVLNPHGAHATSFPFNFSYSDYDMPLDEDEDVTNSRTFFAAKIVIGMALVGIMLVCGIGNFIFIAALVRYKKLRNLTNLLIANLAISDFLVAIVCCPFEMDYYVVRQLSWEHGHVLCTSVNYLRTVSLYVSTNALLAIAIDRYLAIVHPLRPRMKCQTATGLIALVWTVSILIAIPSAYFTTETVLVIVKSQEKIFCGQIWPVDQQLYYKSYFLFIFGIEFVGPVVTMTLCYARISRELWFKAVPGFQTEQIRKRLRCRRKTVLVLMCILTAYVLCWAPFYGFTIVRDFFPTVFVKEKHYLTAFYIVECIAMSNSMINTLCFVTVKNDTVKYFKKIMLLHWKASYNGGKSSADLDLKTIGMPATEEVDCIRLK
Chain of NPBWR2 (P48146 whole entry): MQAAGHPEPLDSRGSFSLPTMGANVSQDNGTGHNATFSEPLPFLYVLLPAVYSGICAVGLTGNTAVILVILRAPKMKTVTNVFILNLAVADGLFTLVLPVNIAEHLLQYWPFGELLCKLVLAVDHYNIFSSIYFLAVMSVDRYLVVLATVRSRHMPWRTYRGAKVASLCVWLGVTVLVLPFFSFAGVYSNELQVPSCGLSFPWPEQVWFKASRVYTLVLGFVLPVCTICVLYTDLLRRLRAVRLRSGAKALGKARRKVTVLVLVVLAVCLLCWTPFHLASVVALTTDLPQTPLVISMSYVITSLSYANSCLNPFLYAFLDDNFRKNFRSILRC
Chain of GPR103 (Q96P65 whole entry): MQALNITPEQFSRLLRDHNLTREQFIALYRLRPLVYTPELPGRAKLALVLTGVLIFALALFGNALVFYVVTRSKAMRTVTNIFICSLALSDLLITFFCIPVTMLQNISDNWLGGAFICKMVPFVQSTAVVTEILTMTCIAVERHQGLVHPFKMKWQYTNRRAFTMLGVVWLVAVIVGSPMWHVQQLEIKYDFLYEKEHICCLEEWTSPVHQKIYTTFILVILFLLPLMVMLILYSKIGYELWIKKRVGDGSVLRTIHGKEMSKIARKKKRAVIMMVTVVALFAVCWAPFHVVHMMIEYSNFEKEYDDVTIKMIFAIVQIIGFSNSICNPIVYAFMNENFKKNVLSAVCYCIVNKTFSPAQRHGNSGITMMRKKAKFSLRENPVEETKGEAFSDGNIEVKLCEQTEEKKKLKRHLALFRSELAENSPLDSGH
Chain of MCHR2 (Q969V1 whole entry): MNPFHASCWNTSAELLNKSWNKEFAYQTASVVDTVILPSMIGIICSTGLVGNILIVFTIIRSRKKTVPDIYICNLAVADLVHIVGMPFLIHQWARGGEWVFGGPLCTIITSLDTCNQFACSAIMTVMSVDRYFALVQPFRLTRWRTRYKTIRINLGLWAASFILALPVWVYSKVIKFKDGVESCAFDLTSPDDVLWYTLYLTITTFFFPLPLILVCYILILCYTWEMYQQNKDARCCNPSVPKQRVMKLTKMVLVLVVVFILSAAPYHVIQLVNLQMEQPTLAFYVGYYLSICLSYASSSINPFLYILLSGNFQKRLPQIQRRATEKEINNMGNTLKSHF

B1: CCL27 (ligand, UniProt Q9Y4X3 25-112, looked up)
chain: FLLPPSTACCTQLYRKPLSDKLLRKVIQVELQEADGDCHLQAFVLHLAQRSICIHPQNPSLSQWFEHQERKLHGTLPKLNFGMLRKMG
In assay [1], B1 gave an EC50 (RC50), arrestin, agonist mode of 26.3 nM and an EC80, arrestin, agonist mode of 109 nM.

B2: EG VEGF (ligand, UniProt P58294 20-105, looked up)
chain: AVITGACERDVQCGAGTCCAISLWLRGLRMCTPLGREGEECHPGSHKVPFFRKRKHHTCPCLPNLLCSRFPDGRYRCSMDLKNINF
On to B2, for which, in assay [2], the EC50 (RC50), arrestin, agonist mode is 10.6 nM and the EC80, arrestin, agonist mode was 30 nM. Further, in [3], the EC50 (RC50), arrestin, agonist mode came out at 17.7 nM and the EC80, arrestin, agonist mode amounted to 53.7 nM.

B3: CXCL13 (ligand, UniProt O43927 23-109, looked up)
chain: VLEVYYTSLRCRCVQESSVFIPRRFIDRIQILPRGNGCPRKEIIVWKKNKSIVCVDPQAEWIQRMMEVLRKRSSSTLPVPVFKRKIP
In the case of B3, in [4], the EC50 (RC50), arrestin, agonist mode is 21 nM and the EC80, arrestin, agonist mode amounted to 61.2 nM.

B4: CXCL11 (ligand, UniProt O14625 22-94, looked up)
chain: FPMFKRGRCLCIGPGVKAVKVADIEKASIMYPSNNCDKIEVIITLKENKGQRCLNPKSKQARLIIKKVERKNF
In assay [5], B4 came in with an EC50 (RC50), arrestin, agonist mode of 12 nM and an EC80, arrestin, agonist mode of 17.9 nM.

B5: Pancreatic Polypeptide (peptide, UniProt P01298 30-65, looked up)
peptide: APLEPVYPGDNATPEQMAQYAADLRRYINMLTRPRY
In [6], B5 displayed an EC50 (RC50), arrestin, agonist mode of 1.5 nM and an EC80, arrestin, agonist mode of 5 nM.

B6: Neuromedin U-25 (peptide, UniProt P48645 142-166, looked up)
peptide: FRVDEEFQSPFASQSRGYFLFRPRN
On to B6, for which, in [7], the EC50 (RC50), arrestin, agonist mode stood at 1.43 nM and the EC80, arrestin, agonist mode worked out at 3.68 nM.

B7: CXCL16 (ligand, UniProt Q9H2A7 30-118, looked up)
chain: NEGSVTGSCYCGKRISSDSPPSVQFMNRLRKHLRAYHRCLYYTRFQLLSWSVCGGNKDPWVQELMSCLDLKECGHAYSGIVAHQKHLLP
As to B7, in [8], the EC50 (RC50), arrestin, agonist mode was determined as 6.81 nM and the EC80, arrestin, agonist mode is 21 nM.

B8: Neuropeptide W23 (peptide, UniProt Q8N729 33-55, looked up)
peptide: WYKHVASPRYHTVGRAAGLLMGL
Regarding B8, in [9], the EC50 (RC50), arrestin, agonist mode worked out at 3.62 nM and the EC80, arrestin, agonist mode was determined as 12.2 nM. In assay [10], this molecule gave an EC50 (RC50), arrestin, agonist mode of 2.17 nM and an EC80, arrestin, agonist mode of 8.01 nM.

B9: MCH (peptide, UniProt P20382 147-165, looked up)
peptide: DFDMLRCMLGRVYRPCWQV
In assay [11], B9 yielded an EC50 (RC50), arrestin, agonist mode of 5.51 nM and an EC80, arrestin, agonist mode of 20.2 nM. Besides, in [12], the EC50 (RC50), arrestin, agonist mode was found to be 167 nM and the EC80, arrestin, agonist mode was found to be 444 nM.

B10: Neuropeptide S (peptide, UniProt P0C0P6 70-89, looked up)
peptide: SFRNGVGTGMKKTSFQRAKS
For the molecule B10, in assay [13], the EC50 (RC50), arrestin, agonist mode was 23.6 nM and the EC80, arrestin, agonist mode was 45.4 nM.

B11: CCL22 (ligand, UniProt O00626 25-93, looked up)
chain: GPYGANMEDSVCCRDYVRYRLPLRVVKHFYWTSDSCPRPGVVLLTFRDKEICADPRVPWVKMILNKLSQ
In assay [14], B11 displayed an EC50 (RC50), arrestin, agonist mode of 3.44 nM and an EC80, arrestin, agonist mode of 19.7 nM.

B12: octadecaneuropeptide (ODN) (peptide)
peptide: QATVGDVNTDRPGLLDLK
modifications: also: synthesised on Rink amide resin, C-terminal amide not given here outright
Take B12: the % Activity, arrestin, antagonist mode, 2.5 uM in [15] is -16.8%; in assay [16] it was -17%.

B13: Sauvagine (peptide, UniProt P01144 1-40, looked up)
peptide: QGPPISIDLSLELLRKMIEIEKQEKEKQQAANNRLLLDTI
On to B13, for which, in assay [17], the EC50 (RC50), arrestin, agonist mode came out at 5.99 nM and the EC80, arrestin, agonist mode came out at 24.5 nM. In [18], this molecule had an EC50 (RC50), arrestin, agonist mode of 3.28 nM and an EC80, arrestin, agonist mode of 10.3 nM.

B14: QRFP-26 (peptide, UniProt P83859 108-133, looked up)
peptide: TSGPLGNLAEELNGYSRKKGGFSFRF
In assay [19], B14 registered an EC50 (RC50), arrestin, agonist mode of 10 nM and an EC80, arrestin, agonist mode of 27.1 nM.

B15: Urotensin II (peptide, UniProt O95399 114-124, looked up)
peptide: ETPDCFWKYCV
B15: in [20], the EC50 (RC50), arrestin, agonist mode came to 1.19 nM and the EC80, arrestin, agonist mode was found to be 4.22 nM.

B16: TFLLR-NH2 (peptide)
peptide: TFLLR-NH2
For B16, in assay [16], the EC50 (RC50), arrestin, agonist mode worked out at 14500 nM and the EC80, arrestin, agonist mode came out at 28700 nM.

B17: CCL1 (ligand, UniProt P22362 24-96, looked up)
chain: KSMQVPFSRCCFSFAEQEIPLRAILCYRNTSSICSNEGLIFKLKRGKEACALDTVGWVQRHRKMLRHCPSKRK
In assay [21], B17 had an EC50 (RC50), arrestin, agonist mode of 45.8 nM and an EC80, arrestin, agonist mode of 159 nM.
